The values below come from patent US20140093496A1 (Chugai, published 2014).

Changes are numbered by the printed parent chain. Names may count otherwise.

For orientation: Kd means a measure of binding affinity in units of concentration. Lower therefore signals a tighter complex.

Assay [1] concerns the target T1, FcγRIIb extracellular domain with C-terminal His tag (human, UniProt P31994 43-217).
T1 construct: extracellular domain; also called FcgRIIb; FcγRIIb extracellular region; not shown: His tag at the C terminus
T1 sequence (looked up): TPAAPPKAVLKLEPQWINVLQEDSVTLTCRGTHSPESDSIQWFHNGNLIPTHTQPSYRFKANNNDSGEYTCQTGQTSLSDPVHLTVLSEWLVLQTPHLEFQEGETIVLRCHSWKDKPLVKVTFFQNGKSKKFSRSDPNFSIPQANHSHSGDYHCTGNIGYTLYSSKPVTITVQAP
In words: SPR, FcγR bound/antibody captured. An excerpt:
(§1) IL6R-L (SEQ ID NO: 22) was utilized as a common antibody L chain for all of the antibodies. These variants were expressed, purified, and expressed by the method of Reference Example 1. […] Interactions of each PD variant with FcγRIIa type R and FcγRIIb were comprehensively evaluated by the method of Reference Example 2.
(§2) With regard to the results of analyzing the interaction with the respective FcγRs, a figure was produced according to the following method.

Assay [2] addresses T2, FcγRIIa type R extracellular domain with C-terminal His tag (human, UniProt P12318 34-217).
T2 chain: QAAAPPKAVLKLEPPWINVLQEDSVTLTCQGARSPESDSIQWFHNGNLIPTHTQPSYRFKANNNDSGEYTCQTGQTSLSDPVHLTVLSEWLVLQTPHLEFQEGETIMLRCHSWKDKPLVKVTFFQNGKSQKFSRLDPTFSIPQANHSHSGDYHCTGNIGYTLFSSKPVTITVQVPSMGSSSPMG
In words: SPR, FcγR bound/antibody captured.
Source text: as §1, §2
Background: Surface plasmon resonance follows binding to a sensor surface in real time, without labels.

The target of assay [3] is T3, FcγRIIa type H extracellular domain with C-terminal His tag (human, UniProt P12318 34-217).
T3 construct: extracellular domain; also called FcγRIIa H; FcγRIIaH; not shown: His tag at the C terminus
T3 sequence (looked up): T2 chain with R134H
In words: SPR (Biacore), antibody captured, FcγR analyte. The text has this:
(§3) Furthermore, KD(IIaR)/KD(IIb) and KD(IIaH)/KD(IIb) in the table respectively show the value obtained by dividing the KD value of each variant for FcγRIIaR by the KD value of each variant for FcγRIIb, and the value obtained by dividing the KD value of each variant for FcγRIIaH by the KD value of each variant for FcγRIIb. KD(IIb) of the parent polypeptide/KD(IIb) of the altered polypeptide refers to a value obtained by dividing the KD value of the parent polypeptide for FcγRIIb by the KD value of each variant for FcγRIIb.
(§4) Kinetic analyses for calculating the KD values of each altered antibody for FcγR were performed according to the following method. First, antibodies of interest were captured onto the above-mentioned sensor chips, and an Fcγ receptor diluted with the running buffer was allowed to interact. The Biacore Evaluation Software was used to globally fit the measured results to the obtained sensorgram using the 1:1 Langmuir binding model, and the association rate constant ka (L/mol/s) and the dissociation rate constant kd (1/s) were calculated; and from those values the dissociation constants KD (mol/L) were calculated.

In assay [4] the target is T4, FcγRIIIa type V extracellular domain with C-terminal His tag (human, UniProt P08637 17-208).
T4 construct: extracellular domain; also called FcγRIIIaV; FcgRIIIaV; not shown: His tag at the C terminus
T4 sequence (P08637 17-208 F176V): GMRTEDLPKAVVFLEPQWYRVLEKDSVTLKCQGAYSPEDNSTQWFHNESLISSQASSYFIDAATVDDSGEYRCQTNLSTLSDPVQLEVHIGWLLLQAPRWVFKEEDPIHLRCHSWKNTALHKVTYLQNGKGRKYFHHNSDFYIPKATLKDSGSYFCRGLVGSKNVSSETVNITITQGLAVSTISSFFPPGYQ
In words: SPR (Biacore), antibody captured, FcγR analyte.
Source text: as §3, §4

In assay [5] the target is T2, FcγRIIa type R extracellular domain …. In words: SPR (Biacore), antibody captured, FcγR analyte.
Source text: as §3, §4

Assay [6] concerns the target T5, FcγRIa extracellular domain, C-terminal His tag (human, UniProt P12314 16-292).
T5 construct: the whole entry is named; also called FcgRIa; CD64A; not shown: His tag at the C terminus
In words: SPR (Biacore), antibody captured, FcγR as analyte.
Source text: (§5) Furthermore, KD(IIaR)/KD(IIb) and KD(IIaH)/KD(IIb) in the table respectively represent the value obtained by dividing the KD value of each variant for FcγRIIaR by the KD value of each variant for FcγRIIb, and the value obtained by dividing the KD value of each variant for FcγRIIaH by the KD value of each variant for FcγRIIb. KD(IIb) of the parent polypeptide/KD(IIb) of the altered polypeptide refers to the value obtained by dividing the KD value of the parent polypeptide for FcγRIIb by the KD value of each variant for FcγRIIb.
as §4

The target of assay [7] is T6, FcγRIIa type R extracellular domain, C-terminal His tag (human, UniProt P12318 34-217).
T6 construct: extracellular domain; also called FcgRIIaR; FcγRIIaR; not shown: His tag at the C terminus
T6 sequence (looked up): T2 chain
In words: SPR (Biacore), antibody captured, FcγR as analyte.
Source text: as §5, §4

For assay [8], the target named is T7, FcγRIa extracellular domain with C-terminal His tag (human, UniProt P12314 16-292).
T7 construct: whole entry named; also called FcgRIa; CD64A; not shown: His tag at the C terminus
T7 sequence (P12314 16-292): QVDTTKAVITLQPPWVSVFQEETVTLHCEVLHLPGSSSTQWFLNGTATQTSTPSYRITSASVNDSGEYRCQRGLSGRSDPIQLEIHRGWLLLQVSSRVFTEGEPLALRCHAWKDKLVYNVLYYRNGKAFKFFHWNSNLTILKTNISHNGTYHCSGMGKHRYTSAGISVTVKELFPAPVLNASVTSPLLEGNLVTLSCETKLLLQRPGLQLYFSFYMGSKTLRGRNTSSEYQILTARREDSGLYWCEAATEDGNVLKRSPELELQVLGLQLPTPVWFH
In words: SPR (Biacore): antibody captured on the chip, FcγR as analyte; amount bound per amount captured, relative to GpH7-B3/GpL16-k0 without mutation = 100. The text has this: (§6) B3 variants were expressed and purified using the method of Reference Example 1, and the binding to each FcγR (FcγRIa, FcγRIIa type H, FcγRIIa type R, FcγRIIb, and FcγRIIIa) was comprehensively evaluated using the method of Reference Example 2.
(§7) Figures were produced based on the results of interaction analysis with each FcγR by the method below. […] The value obtained by multiplying this value by 100 was used as an indicator of the relative FcγR-binding activity of each variant.

Assay [9] has as its target T1, FcγRIIb extracellular domain with …. Described as above.
Source text: as §6, §7

In assay [10] the target is T8, FcγRIIIa extracellular domain with C-terminal His tag (allotype not given) (human, UniProt P08637 17-208).
T8 construct: extracellular domain; also called CD16A; not shown: His tag at the C terminus
T8 sequence (P08637 17-208): as the sequence (P08637 17-208 F176V) above, with V160F counted along it
In words: SPR (Biacore): antibody captured on the chip, FcγR as analyte; amount bound per amount captured, relative to GpH7-B3/GpL16-k0 without mutation = 100; FcγR concentration not shown.
Source text: as §6, §7

Assay [11] addresses T3, FcγRIIa type H extracellular domain …. In words: SPR (Biacore): antibody captured on the chip, FcγR as analyte; amount bound per amount captured, relative to GpH7-B3/GpL16-k0 without mutation = 100.
Source text: as §6, §7

T5 sequence (P12314 16-292): as the sequence (P12314 16-292) above

B1: IL6R-F652/IL6R-L (antibody, human IgG1, kappa)
heavy: QVQLQESGPGLVKPSETLSLTCAVSGHSISHDHAWSWVRQPPGEGLEWIGFISYSGITNYNPSLQGRVTISRDNSKNTLYLQMNSLRAEDTAVYYCARSLARTTAMDYWGEGTLVTVSSASTKGPSVFPLAPSSKSTSGGTAALGCLVKDYFPEPVTVSWNSGALTSGVHTFPAVLQSSGLYSLSSVVTVPSSSLGTQTYICNVNHKPSNTKVDKKVEPKSCDKTHTCPPCPAPELLGGDSVFLFPPKPKDTLYISRTPEVTCVVVDVSHEDPEVKFNWYVDGVEVHNAKTKPREEQYNSTYRVVSVLTVLHQDWLNGKEYKCKVSNKALPAPIEKTISKAKGQPREPQVYTLPPSRDELTKNQVSLTCLVKGFYPSDIAVEWESNGQPENNYKTTPPVLDSDGSFFLYSKLTVDKSRWQQGNVFSCSVMHEALHYHYTQKSLSLSP
light: not shown
notes: IL6R-F11 with P238D; copies: 2 + 2
Consider B1, for which the “relative FcγRIIb-binding activity” value in assay [1] is 100 % of IL6R-F652/IL6R-L. Moreover, the “relative FcγRIIaR-binding activity” value in assay [2] is 100 % of IL6R-F652/IL6R-L.

B2: IL6R-PD087/IL6R-L (antibody, human IgG1, kappa)
heavy: B1 heavy with G239M
light: not shown
notes: IL6R-F11 with P238D/G237M; copies: 2 + 2
Turning to B2, the Kd turned out to be 20 µM in assay [3], 37 µM in [4] and 22 µM in [5].

B3: IL6R-BP119/IL6R-L (antibody, human IgG1, kappa)
heavy: B1 heavy with Y254M, K328M, Y436N, K441E
light: not shown
notes: IgG1; P238D/K326M (EU numbering) introduced into IL6R-B3
Take B3: the equilibrium dissociation constant (Kd) in assay [6] came to 0.007 µM; in assay [7], 9.9 µM.

B4: B3 variant of GpH7-B3/GpL16-k0 with mutation A (Pro at position 238 (EU numbering) substituted with Asp) (antibody, human IgG1, kappa)
heavy: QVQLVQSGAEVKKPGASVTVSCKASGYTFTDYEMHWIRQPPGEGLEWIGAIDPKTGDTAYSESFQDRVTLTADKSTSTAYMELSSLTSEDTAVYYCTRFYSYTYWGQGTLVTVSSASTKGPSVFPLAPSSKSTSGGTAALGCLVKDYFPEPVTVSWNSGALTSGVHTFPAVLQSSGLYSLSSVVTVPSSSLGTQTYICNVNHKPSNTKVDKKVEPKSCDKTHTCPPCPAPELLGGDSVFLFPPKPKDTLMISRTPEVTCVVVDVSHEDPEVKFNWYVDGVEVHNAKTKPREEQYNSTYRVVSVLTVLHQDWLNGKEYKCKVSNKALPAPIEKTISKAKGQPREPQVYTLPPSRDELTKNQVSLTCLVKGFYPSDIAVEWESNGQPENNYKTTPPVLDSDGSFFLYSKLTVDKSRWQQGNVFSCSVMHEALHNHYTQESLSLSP
light: DIVMTQSPLSLPVTPGEPASISCQASESLVHSNRNTYLHWYLQKPGQSPQLLIYKVSNRFSGVPDRFSGSGSGTDFTLKISRVEAEDVGVYYCSQNTHVPPTFGQGTKVEIERTVAAPSVFIFPPSDEQLKSGTASVVCLLNNFYPREAKVQWKVDNALQSGNSQESVTEQDSKDSTYSLSSTLTLSKADYEKHKVYACEVTHQGLSSPVTKSFNRGEC
notes: copies: 2 + 2
As for B4, the binding result is given as “binds” in assay [8], “binds” in [9] and “no binding” in [10].

B5: B3 variant of GpH7-B3/GpL16-k0 with mutation B (Leu at position 328 (EU numbering) substituted with Glu) (antibody, human IgG1, kappa)
heavy: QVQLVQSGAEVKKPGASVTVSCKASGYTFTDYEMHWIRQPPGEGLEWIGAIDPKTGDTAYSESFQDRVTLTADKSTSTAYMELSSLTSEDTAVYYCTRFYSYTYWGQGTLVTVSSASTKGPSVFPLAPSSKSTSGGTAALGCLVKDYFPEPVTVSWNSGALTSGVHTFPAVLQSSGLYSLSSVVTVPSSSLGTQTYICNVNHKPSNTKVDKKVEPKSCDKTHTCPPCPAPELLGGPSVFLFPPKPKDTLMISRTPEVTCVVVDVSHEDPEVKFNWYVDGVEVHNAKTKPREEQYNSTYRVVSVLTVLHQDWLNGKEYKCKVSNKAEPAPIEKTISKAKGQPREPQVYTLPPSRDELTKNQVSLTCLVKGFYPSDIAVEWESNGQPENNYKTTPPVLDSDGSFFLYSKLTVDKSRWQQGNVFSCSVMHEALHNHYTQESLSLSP
light: B4 light
notes: copies: 2 + 2
As to B5, the binding result in [8], in [11] and in assay [9] was “binds” throughout.
